These results are taken from patent publication US20240109965A1 (Ablynx, published 2024).

T1: cynomolgus TCRαβ-zipper protein (cynomolgus)
T1 construct: also called cyTCR(AEA41865)-zipper; CynoTCRαβ-zipper
T1 TCR alpha: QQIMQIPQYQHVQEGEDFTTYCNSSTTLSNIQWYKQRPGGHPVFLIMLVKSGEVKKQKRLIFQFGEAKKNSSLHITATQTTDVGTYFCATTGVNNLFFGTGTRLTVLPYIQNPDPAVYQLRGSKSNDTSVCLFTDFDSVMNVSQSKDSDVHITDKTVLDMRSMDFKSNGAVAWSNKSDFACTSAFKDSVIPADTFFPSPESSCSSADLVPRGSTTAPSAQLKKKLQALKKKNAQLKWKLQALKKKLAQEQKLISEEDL
T1 TCR beta: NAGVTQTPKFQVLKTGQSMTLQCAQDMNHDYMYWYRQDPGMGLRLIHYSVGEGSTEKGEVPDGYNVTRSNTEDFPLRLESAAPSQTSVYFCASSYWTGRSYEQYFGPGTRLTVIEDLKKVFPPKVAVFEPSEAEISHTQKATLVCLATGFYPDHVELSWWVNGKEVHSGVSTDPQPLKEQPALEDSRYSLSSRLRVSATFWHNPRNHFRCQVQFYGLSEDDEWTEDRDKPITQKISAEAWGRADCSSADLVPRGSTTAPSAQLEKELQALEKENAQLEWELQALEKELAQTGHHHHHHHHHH

B1: T017001022 (bispecific antibody)
chain: DVQLVESGGGVVQPGGSLRLSCVASGYVHKINFYGWYRQAPGKEREKVAHISIGDQTDYADSAKGRFTISRDESKNTVYLQMNSLRPEDTAAYYCRALSRIWPYDYWGQGTLVTVSSGGGGSGGGSEVQLVESGGGVVQPGGSLRLSCAASGTTLDYYVIGWFRQAPGKEREGVSCISSSDGYTYYADSVKGRFTISRDNAKNTVYLQMNSLRPEDTALYYCATDPYYSSCHPFFADYEYDYWGQGTLVTVSSGGGGSGGGSEVQLVESGGGVVQPGGSLRLSCAASGFTFRSFGMSWVRQAPGKGPEWVSSISGSGSDTLYADSVKGRFTISRDNSKNTLYLQMNSLRPEDTALYYCTIGGSLSRSSQGTLVTVSS
B2: T017001025 (bispecific antibody)
chain: B1 chain with D61E, W102S
B3: T017001023 (bispecific antibody)
chain: B1 chain with D61E, W102Y
B4: T017001024 (bispecific antibody)
chain: B1 chain with D61E, W102T
B5: T017001026 (bispecific antibody)
chain: B1 chain with D61E, W102Q
B6: T017001029 (bispecific antibody)
chain: EVQLVESGGGVVQPGGSLRLSCAASGTTLDYYVIGWFRQAPGKEREGVSCISSSDGYTYYADSVKGRFTISRDNAKNTVYLQMNSLRPEDTALYYCATDPYYSSCHPFFADYEYDYWGQGTLVTVSSGGGGSGGGSEVQLVESGGGVVQPGGSLRLSCVASGYVHKINFYGWYRQAPGKEREKVAHISIGDQTDYAESAKGRFTISRDESKNTVYLQMNSLRPEDTAAYYCRALSRITPYDYWGQGTLVTVSSGGGGSGGGSEVQLVESGGGVVQPGGSLRLSCAASGFTFRSFGMSWVRQAPGKGPEWVSSISGSGSDTLYADSVKGRFTISRDNSKNTLYLQMNSLRPEDTALYYCTIGGSLSRSSQGTLVTVSS
B7: T017001031 (bispecific antibody)
chain: B6 chain with T238Q
B8: T017000700 (VHH)
VHH: EVQLVESGGGVVQPGGSLRLSCVASGYVHKINFYGWYRQAPGKEREKVAHISIGDQTDYADSAKGRFTISRDESKNTVYLQMNSLRPEDTAAYYCRALSRIWPYDYWGQGTLVTVSS
B9: T017000981 (VHH)
VHH: B8 VHH with D61S, W102Y
B10: T017001001 (VHH)
VHH: B8 VHH with D61E, W102T
B11: T017000949 (VHH)
VHH: B8 VHH with D61Q
B12: T017000967 (VHH)
VHH: B8 VHH with W102Y
B13: T017000946 (VHH)
VHH: B8 VHH with D61A
B14: T017000945 (VHH)
VHH: B8 VHH with D61E
B15: T017000978 (VHH)
VHH: B8 VHH with D61E, W102Y
notes: also called T01700978
B16: T017000980 (VHH)
VHH: B8 VHH with D61Q, W102Y
B17: T017000976 (VHH)
VHH: B8 VHH with D61R, W102Y
B18: T017000938 (VHH)
VHH: B8 VHH with D61P
B19: T017000979 (VHH)
VHH: B8 VHH with D61A, W102Y
B20: T017000995 (VHH)
VHH: B8 VHH with D61E, W102Q
B21: T017000977 (VHH)
VHH: B8 VHH with D61V, W102Y
B22: T017000940 (VHH)
VHH: B8 VHH with D61R
B23: T017000999 (VHH)
VHH: B8 VHH with D61E, W102S
notes: also called T01700999
B24: T017000944 (VHH)
VHH: B8 VHH with D61V
B25: T017000951 (VHH)
VHH: B8 VHH with D61S

Residue numbers refer to the chain shown, from its start.

The first experiment deals with human T cell receptor (TCRαβ) on primary human T cells (human). In words: cell-based or functional assay.
human T cell receptor (TCRαβ) on primary human T cells (human), sequence (P0DTU3 134-275, chain 1 of 2): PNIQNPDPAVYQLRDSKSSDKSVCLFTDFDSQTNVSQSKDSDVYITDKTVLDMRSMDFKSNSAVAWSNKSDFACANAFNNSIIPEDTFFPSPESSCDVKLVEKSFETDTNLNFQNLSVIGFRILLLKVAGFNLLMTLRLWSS
human T cell receptor (TCRαβ) on primary human T cells (human), sequence (P01850 other isoform, or with tags, fused parts or gaps, chain 2 of 2, further chain): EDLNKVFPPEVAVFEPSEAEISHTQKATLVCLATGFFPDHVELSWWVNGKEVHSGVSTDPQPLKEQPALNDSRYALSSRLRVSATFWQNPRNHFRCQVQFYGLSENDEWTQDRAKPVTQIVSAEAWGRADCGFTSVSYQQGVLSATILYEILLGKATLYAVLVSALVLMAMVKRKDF
With B1, the “EC50 (M), human T cell mediated MOLM-13 cell killing, Donor #1” value (“EC50 (M) … Donor #1” below) was determined as 1.5e-11 M and the “EC50 (M), human T cell mediated MOLM-13 cell killing, Donor #2” value (“EC50 (M) … Donor #2” for short) came to 1.4e-10 M.

As to B2, the “EC50 (M) … Donor #1” value was determined as 6.6e-11 M and the “EC50 (M) … Donor #2” value worked out at 3.4e-10 M.

For B3, the “EC50 (M) … Donor #1” value was determined as 2.4e-11 M and the “EC50 (M) … Donor #2” value came out at 1.1e-10 M.

For B4, the “EC50 (M) … Donor #2” value turned out to be 9.8e-10 M.

For the molecule B5, the “EC50 (M) … Donor #1” value worked out at 3.4e-10 M and the “EC50 (M) … Donor #2” value was found to be 4.4e-09 M.

The next experiment concerns the target T1, cynomolgus TCRαβ-zipper protein. In words: SPR Biacore 8K+, multi-cycle kinetics, TCR-zipper immobilized. A general note: Surface plasmon resonance follows binding to a sensor surface in real time, without labels.
Method: Binding of purified TCE-CD123-ALB and CD123-TCE-ALB ISVD constructs to human TCRαβ-zipper protein (huTCR(2XN9)-zipper, in-house produced) and cynomolgus TCRαβ-zipper protein (cyTCR(AEA41865)-zipper, in-house produced) was probed by Surface Plasmon Resonance (SPR) (Cytiva, Biacore 8K+). Both targets were immobilized on a CM5 sensor chip using standard amine coupling chemistry. […] Each concentration of the ISVDs was injected for 180s and dissociation was assessed during 600s.
Data was double referenced by subtracting a reference flow cell (FC) and a blank buffer injection. Affinity constants (ka, kd and KD) were calculated applying the Langmuir 1:1 interaction model using the Biacore Insight Evaluation Software (Cytiva, Version 3.0.12.15655).
On to B1, for which the dissociation constant (Kd) (as a rule, the constant that tells how readily two partners part at equilibrium) is 15 nM.

In the case of B2, the affinity, expressed as Kd, was 780 nM.

For the molecule B3, binding was characterised by a dissociation constant (Kd) of 37 nM. This Kd lies about 21-fold lower than the previous one.

B4: the Kd came to 2400 nM.

Regarding B5, the affinity, expressed as Kd, was 3900 nM.

Consider B6, for which the Kd came to 9100 nM.

In turn, B7 registered a Kd of 18000 nM.

Another experiment has the same target. The experiment in a line: SPR ProteOn XPR36, multi-cycle kinetics, TCR-zipper immobilized.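 Further: monovalent His-tagged ISVD constructs flowed at six concentrations over amine-coupled TCR on a GLC chip, 120 s association, 600 s dissociation, double-referenced, fitted to 1:1 Langmuir model.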
Method: Binding of purified, monovalent TCE-FLAG3-HIS6 and TCE-HIS6 ISVD constructs to human TCRαβ-zipper protein (huTCR(2XN9)-zipper, in-house produced) and cynomolgus TCRαβ-zipper protein (cyTCR(AEA41865)-zipper, in-house produced) was probed by Surface Plasmon Resonance (SPR) (Bio-rad Laboratories, Inc., ProteOn XPR36). Both targets were immobilized on a GLC sensor chip (short matrix, normal capacity) using standard amine coupling chemistry. ISVD constructs were injected at 6 different concentrations in a multi-cycle kinetics (MCK) experiment. Each concentration of the ISVDs was injected for 120s and dissociation was assessed during 600s.
Data was double referenced by subtracting a reference analyte lane and a blank buffer injection. Affinity constants (ka, kd and KD) were calculated applying the Langmuir 1:1 interaction model using the ProteOn Manager 3.1.0 (Bio-rad Laboratories, Inc., Version 3.1.0.6).
In turn, B8 yielded a Kd of 8 nM.

Turning to B9, the “KD ratio cy/huTCR” value was determined as 3.8, the “KD ratio vs ref” value worked out at 2.1, the Kd is 17 nM and the off-rate (koff) (usually the rate constant with which the complex falls apart) stood at 0.0035 s⁻¹. The association rate constant (kon) (commonly the second-order rate constant of association) came to 210000 M⁻¹ s⁻¹.

For the molecule B10, the “KD ratio cy/huTCR” value was determined as 3.1, the “KD ratio vs ref” value was determined as 133, the Kd was 1100 nM and the off-rate (koff) was found to be 0.034 s⁻¹. Moreover, the kon was determined as 32000 M⁻¹ s⁻¹.

For B11, the “KD ratio cy/huTCR” value was 3.2, the “KD ratio vs ref” value is 0.8, binding was characterised by a dissociation constant (Kd) of 6.8 nM and the koff came out at 0.0019 s⁻¹. The kon was found to be 280000 M⁻¹ s⁻¹.

For B12, the “KD ratio cy/huTCR” value is 3.1; the “KD ratio vs ref” value amounted to 1.7; the affinity, expressed as Kd, was 14 nM; the koff was 0.0028 s⁻¹. The molecule further showed a kon of 200000 M⁻¹ s⁻¹.

Regarding B13, the “KD ratio cy/huTCR” value turned out to be 3.1, the “KD ratio vs ref” value was 0.9, binding was characterised by a dissociation constant (Kd) of 7 nM and the off-rate constant (koff) came out at 0.0019 s⁻¹. This molecule had an on-rate constant (kon) of 270000 M⁻¹ s⁻¹.

Consider B14, for which the “KD ratio cy/huTCR” value was 3.1, the “KD ratio vs ref” value is 0.9, the Kd stood at 7.1 nM and the koff worked out at 0.0018 s⁻¹. Moreover, the kon is 260000 M⁻¹ s⁻¹.

Consider B15, for which the “KD ratio cy/huTCR” value turned out to be 4, the “KD ratio vs ref” value came out at 2.5, the Kd was 20 nM and the dissociation rate constant (koff) worked out at 0.0033 s⁻¹. This molecule also showed an association rate constant (kon) of 170000 M⁻¹ s⁻¹.

In the case of B16, the “KD ratio cy/huTCR” value was found to be 4; the “KD ratio vs ref” value stood at 2.1; the affinity, expressed as Kd, was 17 nM; the koff was determined as 0.0034 s⁻¹. The molecule also gave a kon of 210000 M⁻¹ s⁻¹.

With B17, the “KD ratio cy/huTCR” value came to 3.9, the “KD ratio vs ref” value was 1.9, the equilibrium dissociation constant (Kd) was determined as 15 nM and the dissociation rate constant (koff) was 0.0035 s⁻¹. Further, the kon came to 230000 M⁻¹ s⁻¹.

Regarding B18, the “KD ratio cy/huTCR” value came out at 3.2, the “KD ratio vs ref” value worked out at 0.8, the Kd came out at 6.7 nM and the off-rate constant (koff) is 0.0019 s⁻¹. For the same molecule, the kon is 280000 M⁻¹ s⁻¹.

For B19, the “KD ratio cy/huTCR” value turned out to be 3.8, the “KD ratio vs ref” value amounted to 2.3, the dissociation constant (Kd) is 19 nM and the dissociation rate constant (koff) came out at 0.0035 s⁻¹. The molecule further gave a kon of 180000 M⁻¹ s⁻¹.

As for B20, the “KD ratio cy/huTCR” value stood at 2, the “KD ratio vs ref” value is 246, the dissociation constant (Kd) is 2000 nM and the off-rate constant (koff) stood at 0.093 s⁻¹. The molecule further came in with a kon of 47000 M⁻¹ s⁻¹.

Take B21: the “KD ratio cy/huTCR” value was determined as 4.3, the “KD ratio vs ref” value was found to be 2.4, binding was characterised by a dissociation constant (Kd) of 19 nM and the off-rate constant (koff) was found to be 0.0035 s⁻¹. For the same molecule, the kon is 180000 M⁻¹ s⁻¹.

Consider B22, for which the “KD ratio cy/huTCR” value came to 3.2, the “KD ratio vs ref” value worked out at 0.8, binding was put at a Kd of 6.1 nM and the off-rate constant (koff) was 0.0019 s⁻¹. The same molecule returned a kon of 320000 M⁻¹ s⁻¹.

For the molecule B23, the “KD ratio cy/huTCR” value is 2.5; the “KD ratio vs ref” value came out at 43; the affinity, expressed as Kd, was 350 nM; the koff amounted to 0.018 s⁻¹. This molecule gave a kon of 51000 M⁻¹ s⁻¹.

Turning to B24, the “KD ratio cy/huTCR” value turned out to be 3, the “KD ratio vs ref” value was determined as 0.9, the Kd was found to be 7 nM and the off-rate constant (koff) worked out at 0.0019 s⁻¹. The molecule also gave a kon of 280000 M⁻¹ s⁻¹.

B25: the “KD ratio cy/huTCR” value came to 3; the “KD ratio vs ref” value was 0.9; the affinity, expressed as Kd, was 7.4 nM; the koff was found to be 0.002 s⁻¹. The molecule also returned an on-rate constant (kon) of 260000 M⁻¹ s⁻¹.
